This is an account of results in publication doi:10.1101/2021.07.09.451618.

For the test, the target named is F-actin, rabbit skeletal muscle (rabbit) (UniProt P68135).

With “M15-2IQ : ELC : RLC complex (1:1:1), jordan (p.D1647G) MYO15 motor domain (from UniProt P60661 1-151)”, the kcat: extrapolated maximum catalytic rate of the actin-activated ATPase was 0.87 s⁻¹. The result for “M15-2IQ : ELC : RLC complex (1:1:1), wild-type MYO15 motor domain (from UniProt P60661 1-151)” reads 5.8 s⁻¹.
